For one assay, the target named is HLA-A*23:01. As to the kind of experiment: IEDB peptide-MHC binding, purified MHC/direct/fluorescence; filed as Kd, often an IC50 or EC50 that approximates it; ≥ and ≤ were set here for values at or beyond the usual limits of such assays.
Assay [1] concerns the target HLA-B*27:03. Described as above.
The target in another assay is HLA-A*02:19. Described as above.
The next assay addresses HLA-A*02:11. The assay is described as above.
The target in assay [2] is HLA-B*15:17. The assay is described as above.
The target of assay [3] is HLA-A*26:01. The description is as above.
Another assay addresses HLA-A*02:12. The description is as above.
Another assay addresses HLA-A*02:03. The description is as above.
The target in another assay is HLA-A*24:03. The description is as above.
The next assay has as its target HLA-B*46:01. The description is as above.
The target in assay [4] is HLA-B*51:01. The description is as above.
The next assay addresses HLA-A*29:02. The description is as above.
Another assay has as its target HLA-A*69:01. The description is as above.
In a further assay the target is HLA-A*02:16. The assay is described as above.
The next assay has as its target HLA-A*68:02. The assay is described as above.
A further assay concerns the target HLA-A*02:01. Described as above.
Assay [5] addresses HLA-B*39:01. Described as above. To be noted: source organism: Vibrio cholerae O395.
A further assay has as its target HLA-B*57:01. The assay is described as above.
The next assay concerns the target HLA-B*18:01. The description is as above.
The target of the next assay is HLA-A*03:01. The assay is described as above.
The next assay concerns the target HLA-B*15:01. The assay is described as above.
Another assay has as its target HLA-B*07:02. Described as above. To be noted: source organism: Orthohantavirus andesense.
In another assay the target is HLA-A*11:01. The description is as above. The conditions noted are these: source organism: Orthohantavirus andesense.
The target in another assay is HLA-B*58:01. The description is as above. To be noted: source organism: Orthohantavirus andesense.
Another assay addresses HLA-B*40:01. Described as above. The conditions noted are these: source organism: Orthohantavirus andesense.
A further assay deals with HLA-A*31:01. The description is as above. To be noted: source organism: Orthohantavirus andesense.
The next assay deals with HLA-A*01:01. The description is as above. To be noted: source organism: Orthohantavirus andesense.
Another assay has as its target HLA-B*27:05. The assay is described as above. The conditions noted are these: source organism: Orthohantavirus andesense.
The target of another assay is HLA-B*48:01. Described as above. To be noted: source organism: Orthohantavirus andesense.
In another assay the target is HLA-B*08:01. The description is as above. To be noted: source organism: Orthohantavirus andesense.
The target in the next assay is HLA-B*44:02. The description is as above. To be noted: source organism: Orthohantavirus andesense.
In assay [6] the target is HLA-B*27:03. Put plainly: IEDB peptide-MHC binding, purified MHC/competitive/fluorescence; filed as Kd, often an IC50 or EC50 that approximates it; ≥ and ≤ were set here for values at or beyond the usual limits of such assays. The conditions noted are these: source organism: Lechiguanas virus.
The target of assay [7] is HLA-B*15:17. The description is as above. The conditions noted are these: source organism: Lechiguanas virus.
In assay [8] the target is HLA-A*26:01. The description is as above. The conditions noted are these: source organism: Lechiguanas virus.
Assay [9] has as its target HLA-B*51:01. The assay is described as above. The conditions noted are these: source organism: Lechiguanas virus.
The target in assay [10] is HLA-B*39:01. The description is as above. To be noted: source organism: Lechiguanas virus.
[11] abbreviates: source organism: Vibrio cholerae O395.
Setting [12] is: source organism: Giardia lamblia ATCC 50803.
Setting [13] is: source organism: Rio Mamore hantavirus.
Where [14] appears, read: source organism: Orthohantavirus andesense.

This note sets out measurements from the Immune Epitope Database (IEDB).

In the case of VVSEIDLQW, the Kd with HLA-A*23:01 (setting [11]) is no less than 20 µM; in the assay with HLA-B*27:03 [1] (setting [11]), no less than 20 µM; with HLA-A*02:19 (setting [11]), no less than 20 µM; with HLA-A*02:11 (setting [11]) it was no less than 20 µM; with HLA-B*15:17 [2] (setting [11]), 0.002 µM; with HLA-A*26:01 [3] (setting [11]), no less than 20 µM. Further, the dissociation constant Kd with HLA-A*02:12 (setting [11]), in the assay with HLA-A*02:03 (setting [11]), with HLA-A*24:03 (setting [11]), with HLA-B*46:01 (setting [11]), with HLA-B*51:01 [4] (setting [11]) and with HLA-A*29:02 (setting [11]) was no less than 20 µM in each case. Moreover, the Kd with HLA-A*69:01 (setting [11]), with HLA-A*02:16 (setting [11]), with HLA-A*68:02 (setting [11]), in the assay with HLA-A*02:01 (setting [11]), with HLA-B*39:01 [5] and with HLA-B*57:01 (setting [11]) was no less than 20 µM throughout. Moreover, the Kd with HLA-B*18:01 (setting [11]), with HLA-A*03:01 (setting [11]) and with HLA-B*15:01 (setting [11]) was no less than 20 µM each time.

On to MHDPHSIPL, for which the Kd with HLA-A*23:01 (setting [12]), in the assay with HLA-B*27:03 [1] (setting [12]), with HLA-A*02:19 (setting [12]), with HLA-A*02:11 (setting [12]), with HLA-B*15:17 [2] (setting [12]) and with HLA-A*26:01 [3] (setting [12]) was no less than 20 µM in each case. In addition, the Kd with HLA-A*02:12 (setting [12]), with HLA-A*02:03 (setting [12]), in the assay with HLA-A*24:03 (setting [12]), with HLA-B*46:01 (setting [12]), with HLA-B*51:01 [4] (setting [12]) and in the assay with HLA-A*29:02 (setting [12]) was no less than 20 µM each time. The Kd with HLA-A*69:01 (setting [12]), with HLA-A*02:16 (setting [12]), with HLA-A*68:02 (setting [12]), with HLA-A*02:01 (setting [12]), with HLA-B*57:01 (setting [12]) and in the assay with HLA-B*18:01 (setting [12]) was no less than 20 µM throughout. In addition, the Kd with HLA-A*03:01 (setting [12]) and with HLA-B*15:01 (setting [12]) was no less than 20 µM in each case.

YRRKLTNPA: the Kd in the assay with HLA-A*23:01 (setting [13]), with HLA-B*07:02, with HLA-A*11:01, with HLA-B*58:01, in the assay with HLA-B*40:01 and with HLA-A*31:01 was no less than 20 µM in each case. Besides, the Kd with HLA-A*02:12 (setting [13]), with HLA-A*24:03 (setting [13]), in the assay with HLA-B*46:01 (setting [14]), in the assay with HLA-A*01:01, with HLA-A*29:02 (setting [14]) and in the assay with HLA-A*69:01 (setting [14]) was no less than 20 µM each time. In addition, the Kd with HLA-B*27:05 is no less than 20 µM; with HLA-B*48:01 it was no less than 20 µM; in the assay with HLA-B*08:01, 1.12 µM; with HLA-A*68:02 (setting [13]), no less than 20 µM; with HLA-A*02:01 (setting [14]), no less than 20 µM; with HLA-B*57:01 (setting [14]) it was no less than 20 µM. Further, the Kd with HLA-B*18:01 (setting [14]), in the assay with HLA-A*03:01 (setting [14]), with HLA-B*44:02, with HLA-B*15:01 (setting [14]), with HLA-B*27:03 [6] and in the assay with HLA-B*15:17 [7] was no less than 20 µM each time. Besides, the Kd with HLA-A*26:01 [8], with HLA-B*51:01 [9] and with HLA-B*39:01 [10] was no less than 20 µM each time.
